This is an account of results in patent US20140154241A1 (CYCLOGENIX, published 2014).

This assay concerns the target T1, human serum albumin (HSA) (human, UniProt P02768 25-609).
T1 construct: Coated on ELISA plates or immunotubes; also called HuSA
As to the kind of experiment: phage ELISA on coated HSA.

T1 sequence (P02768 25-609 limits assumed): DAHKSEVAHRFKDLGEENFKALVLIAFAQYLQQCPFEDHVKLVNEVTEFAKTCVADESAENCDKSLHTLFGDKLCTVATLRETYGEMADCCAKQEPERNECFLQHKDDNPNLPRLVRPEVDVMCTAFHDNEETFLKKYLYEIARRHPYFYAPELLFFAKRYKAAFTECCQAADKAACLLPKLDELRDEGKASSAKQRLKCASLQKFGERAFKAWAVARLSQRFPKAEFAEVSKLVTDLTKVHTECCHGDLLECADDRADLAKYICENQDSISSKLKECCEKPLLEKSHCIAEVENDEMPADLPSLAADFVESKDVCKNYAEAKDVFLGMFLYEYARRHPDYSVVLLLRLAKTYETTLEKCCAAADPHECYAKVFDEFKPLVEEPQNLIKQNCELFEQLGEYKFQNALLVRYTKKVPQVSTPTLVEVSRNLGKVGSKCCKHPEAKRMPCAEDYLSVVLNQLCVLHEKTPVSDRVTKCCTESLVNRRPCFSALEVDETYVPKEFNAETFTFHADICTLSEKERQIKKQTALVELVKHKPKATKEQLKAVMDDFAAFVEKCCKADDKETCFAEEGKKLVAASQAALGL

B1: modified igNAR peptide clone B10 (VNAR)
VNAR: RVDQTPRIATKETGESLTINCVLRDTACALDSTNWYRTKLGSTKEQTISIGGRYSETADEGSNPASLTIRDLRVEDSGTYKCKAAITPFDNWYECLGTRAEGAGTVLTVK
As to B1, the binding result is “binds”.

B2: representative full igNAR clone of SEQ ID NO: 8 (VNAR)
VNAR: RVDQTPRIATKETGESLTINCVLRDTACALDSTNWYRTKLGSTKEQTISIGGRYSETVDEGSNSASLTIRDLRVEDSGTYKCKAAITPFDNWYECLGTRAEGAGTVLTVK
On to B2, for which the binding result is reported as “binds”.
